Data taken from article PMC8980021.

Columns and labels:
[1] = target: wild type human CD80 extracellular domain Fc fusion (WT CD80 ECD-Fc) (human) (UniProt P33681); experiment: SPR; Biacore 3000, CM5 chip with goat anti-human IgG capture antibody; ALPN-202 (120 RU) or WT CD80 ECD-Fc (160 RU) captured; monomeric human CD28, CTLA-4, PD-L1 as analytes; 240 s association, 600 s dissociation, 30 uL/min; global 1:1 fit; for the weak interactions a minimal KD with theoretical Rmax fixed
[2] = target: ALPN-202 (davoceticept), variant CD80 IgV domain Fc fusion (human) (UniProt P33681); experiment: as above

Kd [1] [µM]	Kd [2] [µM]	Substance
> 2.6	0.0099	recombinant monomeric human CD28 (from UniProt P10747 19-152) (receptor)
> 37	–	recombinant monomeric human PD-L1 (from UniProt Q9NZQ7 19-238) (ligand)
